The nature of data set [1]: Sensitivity of CAH to iodoacetamide. The data set is classed as biochemical. The following applies: 30 uM CAH, 20 mM iodoacetamide. The procedure:
In addition to commonly used oxidants, the effect of a commonly used sulfhydryl reactive agent (iodoacetamide) was also tested on the activity of WT and variant CAH. It was reasoned that a sulfhydryl reactive compound might react with the cysteine sulfhydryl group of the wild-type protein to block substrate access to the active site much in the same way an oxidant could oxidize the cysteine sulfhydryl group and block active site access.
(§1) To determine sensitivity of WT, C46A and C46S CAH to various oxidants or sulfhydryl reagents, purified protein (30 μM) was pre-incubated with or without the potential inhibitor, 8.5 mM hydrogen peroxide, 50 μM potassium permanganate, 22 μM (1 ppm) ozone or 20 mM iodoacetamide. At appropriate time points, aliquots of the protein samples were diluted 100 fold into a solution of 140 ppm cyanuric acid and incubated for 10 minutes before the cyanuric acid concentration was measured with the melamine turbidity assay (explained in previous document). The results are plotted as the log of the percent of untreated-protein activity as a function of treatment time.

Data set [2] can be described thus: Resistance of CAH to mercury (II) salt. In kind it is biochemical. The following applies: 48 uM enzyme, 1.6 mM phenyl mercuric acetate, assayed after one minute. The procedure:
The effect of a common heavy metal, mercury, on the activity of WT and variant CAH was also tested. […] Specifically, mercury (II) salts were used to test resistance, which are known to be particularly damaging to proteins. The WT or C46A enzymes (48 uM) were incubated with 1.6 mM phenyl mercuric acetate; the WT CAH enzyme retained 1% activity (+/−13% error) (so it was 99% inactivated) while the C46A mutant enzyme retained 89% activity (+1-11%) (so it was completely resistant within experimental error) when assayed after one minute.

A short description of data set [3]: Cyanuric acid hydrolase activity (melamine turbidity assay). The following applies: 140 ppm cyanuric acid in phosphate buffered saline; 0.03 μM enzyme (0.12 μM for C46D, V, T). In kind it is biochemical. The procedure:
To determine CAH activity, 0.03 μM enzyme was incubated with a 140 ppm cyanuric acid (CYA) solution in phosphate buffered saline (138 mM NaCl, 3 mM KCl, 10 mM Na2HPO4, 2 mM KH2PO4). For the WT protein and the C46A and C46S variants, fractions were removed every 5 minutes to assay CYA concentration using a modified melamine turbidity assay (Downes et al. 1984). An equal volume of melamine solution (2.5 mg/mL in water) was added to cyanuric acid samples and mixed thoroughly. The absorbance at 600 nm was read 2 minutes after mixing. For the severely impaired CAH proteins (C46D, V and T), 0.12 μM protein was used and fractions were removed every hour for CYA measurement. Specific activity (nmol min^−1 mg^−1) was calculated as the average of triplicate data at two time points.

Data set [4] can be described thus: Inactivation of CAH by Michael addition. In kind it is biochemical. The following applies: 30 uM enzyme, 350 uM N-ethylmaleimide. The procedure:
Inactivation of the WT and variant CAH from a Michael addition reaction was also investigated using N-ethylmaleimide. Specifically, the WT or C46A enzymes (30 uM) were incubated with 350 uM N-ethylmaleimide.

A short description of data set [5]: Sensitivity of CAH to hydrogen peroxide. In kind it is biochemical. Conditions: 30 μM CAH, 8.5 mM H2O2. The procedure: as §1
Data set [6] in a line: Circular dichroism thermal melting. Conditions: CD at 220 nm, 25 μM protein, 55 to 90° C. In kind it is physicochemical. How it is done:
The circular dichroism (CD) measurements were performed on a Jasco J-815 spectrometer with 25 μM protein in 50 mM M Tris-HCl buffer, pH 7.2 in a 1 mm path length cell. For thermal melting, the changes in CD spectra at of the proteins were sampled at 220 nm every 1° C. during continuous heating the solutions from 55 to 90° C. at 1 degree per minute. Data were normalized to the initial reading at 55 C.
A general note: Circular dichroism is widely used to follow secondary structure.

Data set [7] is described as follows: Bleach sensitivity of CAH. The data set is classed as biochemical. The following applies: 30 μM protein pre-incubated with 1 mM bleach. The procedure: To determine bleach sensitivity of WT, C46A and C46S CAH, purified protein (30 μM) was pre-incubated with or without 1 mM bleach. At appropriate time points, aliquots of the protein samples were diluted 100 fold into a solution of 140 ppm cyanuric acid and incubated for 10 minutes before the cyanuric acid concentration was measured with the melamine turbidity assay. The results are plotted as the log of the percent of untreated-protein activity as a function of treatment time.

Where a chain is given by its changes, count along the chain named. In names and notes the source's numbering stands.

B1: C46A: Moorella thermoacetica CAH with cysteine at residue 46 replaced with alanine (protein)
chain: MQKVEVFRIPTASPDDISGLATLIDSGKINPAEIVAILGKTEGNGAVNDFTRGFATQSLAMYLAEKLGISREEVVKKVAFIMSGGTEGVMTPHITVFVRKDVQEPAKPGKRLAVGVAFTRDFLPEELGRMEQVNEVARAVKEAMKDAQIDDPRDVHFVQIKCPLLTAERIEDAKRRGKDVVVNDTYKSMAYSRGASALGVALALGEISADKISNEAICHDWNLYSSVASTSAGVELLNDEIIVVGNSTNSASDLVIGHSVMKDAIDADAVRAALKDAGLKFDCCPPAEELAKIVNVLAKAEAASSGTVRGRRNTMLDDSDINHTRSARAVVNAVIASVVGDPMVYVSGGAEHQGPDGGGPIAVIARV
B1: the “Effect of iodoacetamide on activity” value in data set [1] is given as “not affected”. The Activity retained in data set [2] is listed as 89%. Besides, the Specific activity in data set [3] is 10.03 µmol/min/mg. For the same molecule, the “Protection from inactivation by N-ethylmaleimide” value in data set [4] is “completely protected”. The “Decrease of sensitivity to hydrogen peroxide versus wild-type” value in data set [5] is “over four-fold”. For the same molecule, the “Thermal melting curve compared to WT” value in data set [6] is listed as “very closely resemble the WT curve”. For the same molecule, the “Resistance to inactivation by bleach” value in data set [7] is recorded as “largely resistant to inactivation by bleach”.

B2: C46S: Moorella thermoacetica CAH with cysteine at residue 46 replaced with serine (protein)
chain: B1 chain with A46S
As to B2, in data set [3], the Specific activity was determined as 6.972 µmol/min/mg. The “Decrease of sensitivity to hydrogen peroxide versus wild-type” value in data set [5] is on record as “over four-fold”. Besides, the “Thermal melting curve compared to WT” value in data set [6] is “very closely resemble the WT curve”. Further, the “Resistance to inactivation by bleach” value in data set [7] is “largely resistant to inactivation by bleach”.

Source of the values: patent publication US10233437B2, “Hypochlorite resistant cyanuric acid hydrolases and methods of use thereof” (REGENTS OF THE UNIVERSITY OF MINNESOTA, priority 2015, dated 2019).
